To fix the notation:
B1: SARS-CoV-2 variant 1-32 (antibody, V domains shown)
VH: EVQLLESGGGLVQPGGSLRLSCAASGFTFSSYAMYWVRQAPGKGLEWVSAISGSGGSTFYADSVKGRFTISRDNSKNTLYLQMNSLRAEDTAVYYCTRPPYGDYGDYWGQGTLVTVSS
VL: QSALTQPASVSGSPGQSITISCTGTSSDVGGYNLVSWYQQHPGKAPKLMIYEGNKRPSGVSNRFSGSKSGNTASLTISGLQAEDEADYYCCSYAGSSTFPVVFGGGTKLTVL
B2: SARS-CoV-2 variant 1-22 (antibody, V domains shown)
VH: EVQLLESGGGLVQPGGSLRLSCAASGFTFSSYAMNWVRQAPGKGLEWVSIISGSGGSTYYADSVKGRFTISRDNSKNTLYLQMNSLRAEDTAVYYCAREGYRDYLWYFDLWGQGTLVTVSS
VL: QSALTQPASVSGSPGQSITISCTGTSTDVGSYNLVSWYQQHPGKAPKLMIYEGSQRPSGVSNRFSGSKSGNTASLTISGLQAEDEADYYCCSYAGSSTVFGGGTKLTVL
B3: SARS-CoV-2 variant 1-24 (antibody, V domains shown)
VH: B2 VH
VL: B2 VL with T27S, S31Y, S54N, Q55K, S96G, T98V
B4: SARS-CoV-2 variant 1-2 (antibody, V domains shown)
VH: EVQLLESGGGLVQPGGSLRLSCAASGFTFSSQAMSWVRQAPGKGLEWVSAISGSGGGTYYADSVKGRFTISRDNSKNTLYLQMNSLRAEDTAVYYCAKDRRFGEFDPWGQGTLVTVSS
VL: QSALTQPASVSGSPGQSITISCTGTSSGVGSYNLVSWYQQHPGKAPKLMIYEGIKRPSGVSNRFSGSKSGNTASLTISGLQAEDEADYYCCSYAGSSSFVVFGGGTKLTVL
B5: SARS-CoV-2 variant 1-35 (antibody, V domains shown)
VH: EVQLLESGGGLVQPGGSLRLSCAASGFTFSNYAMSWVRQAPGKGLEWVSDISGSGGSTYYADSVKGRFTISRDNSKNTLYLQMNSLRAEDTAVYYCVKGTIPIFGVIRSAFDYWGQGTLVTVSS
VL: B4 VL with G28D, N33S, I54T, S97Y, F99Y
B6: SARS-CoV-2 variant 1-27 (antibody, V domains shown)
VH: EVQLLESGGGLVQPGGSLRLSCAASGFTFSSYAMTWVRQAPGKGLEWVSAISGSGGGTYYADSVKGRFTISRDNSKNTLYLQMNSLRAEDTAVYYCASSSSWQFDYWGQGTLVTVSS
VL: B4 VL with G28Y, S31H, I54S, K55R, S97Y, S98T, F99H, V100Y
B7: SARS-CoV-2 variant 1-30 (antibody, V domains shown)
VH: B1 VH with Y35T
VL: B4 VL with S27R, G28D, I54T, S97R, S98T, F99P
B8: SARS-CoV-2 variant 1-10 (antibody, V domains shown)
VH: EVQLLESGGGLVQPGGSLRLSCAASGFTFSSYDMSWVRQAPGKGLEWVSVISGSGGSTYYADSVKGRFTISRDNSKNTLYLQMNSLRAEDTAVYYCAKGPLVGWYFDLWGQGTLVTVSS
VL: B4 VL with G28N, I54T
B9: SARS-CoV-2 variant 1-3 (antibody, V domains shown)
VH: B4 VH
VL: B4 VL with T25I, G28D, I54T
B10: SARS-CoV-2 variant 1-28 (antibody, V domains shown)
VH: B6 VH with A33G, T35S
VL: B4 VL with I54S, K55Q, S98T, F99H, V100Y
B11: SARS-CoV-2 variant 1-31 (antibody, V domains shown)
VH: B1 VH with Y35N
VL: B4 VL with G28D, S31K, I54S, K55Q, S97R, S98T, F99P
B12: SARS-CoV-2 variant 1-7 (antibody, V domains shown)
VH: B8 VH
VL: B4 VL with G28D, V29F, I54N, S98T
B13: SARS-CoV-2 variant 1-33 (antibody, V domains shown)
VH: B1 VH with Y35I
VL: B4 VL with G28D, V35L, G53A, I54S, S97R, S98T, F99P
B14: SARS-CoV-2 variant 1-4 (antibody, V domains shown)
VH: B4 VH
VL: B4 VL with G28D, S31T, I54S, K55Q
B15: SARS-CoV-2 variant 1-5 (antibody, V domains shown)
VH: B4 VH
VL: B4 VL with G53A, I54S, S97Y, S98T, V100A
B16: SARS-CoV-2 variant 1-41 (antibody, V domains shown)
VH: B8 VH
VL: QSALTQPASVSGSPGQSITISCTGTSSDIGSYNLVSWYQQHPGKAPKLMIYEGTKRPSGVSNRFSGSKSGNTASLTISGLQAEDEADYYCCSYAGSRTYVFGGGTKLTVL
B17: SARS-CoV-2 variant 1-29 (antibody, V domains shown)
VH: EVQLLESGGGLVQPGGSLRLSCAASGFTFSSYAMYWVRQAPGKGLEWVSAISGSAGSTYYADSVKGRFTISRDNSKNTLYLQMNSLRAEDTAVYYCARDTNDFWSGYSIFDPWGQGTLVTVSS
VL: B16 VL

Changes are numbered by the printed parent chain.

The target of the first assay is T1, COVID S1 RBM Fc fusion (Antigen 2) (SARS-CoV-2, UniProt P0DTC2 437-508).
T1 construct: domain: RBM
Put plainly: phage ELISA.
On to B1, for which the “specificity ELISA, fold over background” value is 1.1 fold over background and the “specificity ELISA, percent binding relative to Acro S1” value is 9.5%.

For the molecule B2, the “specificity ELISA, fold over background” value worked out at 1.5 fold over background and the “specificity ELISA, percent binding relative to Acro S1” value worked out at 4.7%.

For B3, the “specificity ELISA, fold over background” value was 1.3 fold over background and the “specificity ELISA, percent binding relative to Acro S1” value was 10.3%.

As for B4, the “specificity ELISA, fold over background” value was found to be 1.7 fold over background and the “specificity ELISA, percent binding relative to Acro S1” value is 93.5%.

Turning to B5, the “specificity ELISA, fold over background” value stood at 1.6 fold over background and the “specificity ELISA, percent binding relative to Acro S1” value worked out at 7.3%.

Regarding B6, the “specificity ELISA, fold over background” value came to 1.6 fold over background and the “specificity ELISA, percent binding relative to Acro S1” value worked out at 109%.

As for B7, the “specificity ELISA, fold over background” value was 1.4 fold over background and the “specificity ELISA, percent binding relative to Acro S1” value amounted to 8.5%.

Turning to B8, the “specificity ELISA, fold over background” value turned out to be 1.1 fold over background and the “specificity ELISA, percent binding relative to Acro S1” value is 6.2%.

With B9, the “specificity ELISA, fold over background” value is 1.5 fold over background and the “specificity ELISA, percent binding relative to Acro S1” value is 91.9%.

As for B10, the “specificity ELISA, fold over background” value worked out at 1.2 fold over background and the “specificity ELISA, percent binding relative to Acro S1” value came to 124%.

B11: the “specificity ELISA, fold over background” value came out at 1.2 fold over background and the “specificity ELISA, percent binding relative to Acro S1” value came out at 3.8%.

On to B12, for which the “specificity ELISA, fold over background” value amounted to 1.6 fold over background and the “specificity ELISA, percent binding relative to Acro S1” value was 23%.

As for B13, the “specificity ELISA, fold over background” value worked out at 1 fold over background and the “specificity ELISA, percent binding relative to Acro S1” value stood at 14.6%.

For the molecule B14, the “specificity ELISA, fold over background” value was 1.1 fold over background and the “specificity ELISA, percent binding relative to Acro S1” value came out at 105%.

For B15, the “specificity ELISA, fold over background” value came to 1.4 fold over background and the “specificity ELISA, percent binding relative to Acro S1” value was 92%.

In the case of B16, the “specificity ELISA, fold over background” value came out at 1.2 fold over background and the “specificity ELISA, percent binding relative to Acro S1” value amounted to 26.3%.

Turning to B17, the “specificity ELISA, fold over background” value is 0.9 fold over background and the “specificity ELISA, percent binding relative to Acro S1” value amounted to 78.3%.

The target in another assay is T2, SARS-CoV-2 S1 (subunit 1) protein (SARS-CoV-2, UniProt P0DTC2 16-685).
T2 construct: also called biotinylated SARS-CoV-2 S1
Put plainly: phage ELISA. In general terms: An ELISA detects its analyte on a solid surface through an enzyme-linked reagent.
In the case of B1, the “screening ELISA (Avg), fold over background” value (“screening ELISA (Avg), fold” for short) was found to be 17.9 fold over background.

Take B2: the “screening ELISA (Avg), fold” value is 40.6 fold over background.

Regarding B3, the “screening ELISA (Avg), fold” value turned out to be 32.9 fold over background.

Consider B4, for which the “screening ELISA (Avg), fold” value is 24.2 fold over background.

B6: the “screening ELISA (Avg), fold” value turned out to be 27.2 fold over background.

On to B7, for which the “screening ELISA (Avg), fold” value was 29.5 fold over background.

Consider B8, for which the “screening ELISA (Avg), fold” value is 16.9 fold over background.

For B9, the “screening ELISA (Avg), fold” value was 23.9 fold over background.

As for B10, the “screening ELISA (Avg), fold” value was 17.7 fold over background.

Regarding B11, the “screening ELISA (Avg), fold” value was 20.7 fold over background.

B12: the “screening ELISA (Avg), fold” value turned out to be 22.5 fold over background.

Consider B13, for which the “screening ELISA (Avg), fold” value came to 17.6 fold over background.

For B14, the “screening ELISA (Avg), fold” value amounted to 20.6 fold over background.

On to B15, for which the “screening ELISA (Avg), fold” value was found to be 20.6 fold over background.

Take B16: the “screening ELISA (Avg), fold” value was 18.1 fold over background.

Take B17: the “screening ELISA (Avg), fold” value is 23.8 fold over background.

A further assay addresses S1-Fc (SARS-CoV-2, UniProt P0DTC2 16-685). Put plainly: phage ELISA.
Turning to B1, the “specificity ELISA, fold over background” value came out at 4 fold over background and the “specificity ELISA, percent binding relative to Acro S1” value was 35.3%.

For the molecule B4, the “specificity ELISA, fold over background” value worked out at 1.7 fold over background and the “specificity ELISA, percent binding relative to Acro S1” value stood at 95.4%.

With B6, the “specificity ELISA, fold over background” value worked out at 1.3 fold over background and the “specificity ELISA, percent binding relative to Acro S1” value stood at 84.8%.

Take B7: the “specificity ELISA, fold over background” value was found to be 5.6 fold over background and the “specificity ELISA, percent binding relative to Acro S1” value was 33.3%.

Regarding B9, the “specificity ELISA, fold over background” value was determined as 1.5 fold over background and the “specificity ELISA, percent binding relative to Acro S1” value was 91.2%.

As to B10, the “specificity ELISA, fold over background” value is 1.1 fold over background and the “specificity ELISA, percent binding relative to Acro S1” value turned out to be 110%.

For B11, the “specificity ELISA, fold over background” value was 15.7 fold over background and the “specificity ELISA, percent binding relative to Acro S1” value is 51.6%.

Regarding B13, the “specificity ELISA, fold over background” value amounted to 3 fold over background and the “specificity ELISA, percent binding relative to Acro S1” value turned out to be 42.1%.

Take B14: the “specificity ELISA, fold over background” value is 0.9 fold over background and the “specificity ELISA, percent binding relative to Acro S1” value is 90.8%.

As for B15, the “specificity ELISA, fold over background” value came to 1.2 fold over background and the “specificity ELISA, percent binding relative to Acro S1” value was determined as 82.9%.

As for B17, the “specificity ELISA, fold over background” value is 1 fold over background and the “specificity ELISA, percent binding relative to Acro S1” value stood at 94%.

Another assay addresses T3, COVID S1 RBD Fc fusion (Antigen 1) (SARS-CoV-2, UniProt P0DTC2 319-541).
T3 construct: domain: RBD
Put plainly: phage ELISA.
Turning to B2, the “specificity ELISA, fold over background” value amounted to 26.5 fold over background and the “specificity ELISA, percent binding relative to Acro S1” value came to 81.2%.

Regarding B3, the “specificity ELISA, fold over background” value came to 11 fold over background and the “specificity ELISA, percent binding relative to Acro S1” value came out at 85.4%.

On to B8, for which the “specificity ELISA, fold over background” value came out at 17.4 fold over background and the “specificity ELISA, percent binding relative to Acro S1” value is 100%.

On to B12, for which the “specificity ELISA, fold over background” value was determined as 3.3 fold over background and the “specificity ELISA, percent binding relative to Acro S1” value stood at 48.7%.

Source of the values: patent publication US20210395344A1 (TWIST BIOSCIENCE, published 2021).
